# Source: article doi:10.1101/2025.02.12.637823v1 (biorxiv, 2025)
# Columns and labels:
# SlNADP-ME4a = assay: initial velocity, spectrophotometric; format: biochemical, Solanum lycopersicum; settings: pyruvate reductive carboxylation (reverse reaction); assay details not given
# [1] = substrate: CC(=O)C(=O)O; assay: initial velocity, spectrophotometric; format: biochemical, Solanum lycopersicum; settings: pyruvate reductive carboxylation (reverse reaction); assay details not given
Km (SlNADP-ME4a) [mM],Molecule,Km [1] [mM],kcat [1] [s⁻¹]
15.5 ± 1,CC(=O)C(=O)O [pyr],,
,SlNADP-ME2 (Solanum lycopersicum) (protein) MESALKDLSTPTGGVEDVYGEDCATEDQCITPWTIAVSSGYNLLRDPRYNKGLAFTERERDAHYLRGLLPPVISSQELQEKKLMQSIRQYDVPLHKYVAMMELEERNERLFYKLLIDNVEELLPIVYTPTVGEACQKYGSLFKRPQGLYISLNEKGRILEVLKNWPEKSIQVIVVTDGERILGLGDLGCQGMGIPVGKLALYTALGGVRPSACLPITIDVGTNNEKLLNDEFYIGLRQRRATGQEYYDFLHEFMSAVKQNYGEKILVQFEDFANHNAFELLAKYRTSHLVFNDDIQGTASVVLAGLIASLKLLGGALCDHTFLFLGAGEAGTGIAELIALEISNKTNIPVEETRKKIWLVDSKGLIVSGRKETLQAFKKPWAHEHEPVNNLLDAVKAVKPTVLIGTSGTGRTFTKEVVEAMACMNKRPLIMALSNPTSQAECTAEEAYTWSEGRAVFASGSPFPSFEYDGKLNIPGQANNCYIFPGFGFGLVMSGTIRVHDDMLLAASEALAAQVTEEHYAKGMIYPPFADIRKISAHIAASVAAKAYELGVATRLPRPADLVKYAESCMYTPNYRSYR,5.0 ± 1.1,26.5 ± 1.7
